Source: patent publication US20220259289A1 (Janssen / Centocor, published 2022)

B1: ISOP193FR9P1D5 (designed binder, not shown: small tags and cut ends)
chain: LPAPKNLVVSRVTEDSARLSWTAPDAAFDSFYIRYIEDVDFGEAIVLTVPGSERSYDLTGLKPGTEYLVTIYGVKGCDWSDPLSAIFTT
B2: ISOP193FR9P1H6 (designed binder, not shown: small tags and cut ends)
chain: LPAPKNLVVSRVTEDSARLSWTAPDAAFDSFDINYFEQPKGGEAIVLTVPGSERSYDLTGLKPGTEYLVTIYGVKGCDWSDPLSAIFTT
B3: ISOP193HR9P1A6 (designed binder, not shown: small tags and cut ends)
chain: LPAPKNLVVSRVTEDSARLSWTAPDAAFDSFDIYYYELRLGGEAIVLTVPGSERSYDLTGLKPGTEYLVSIYGVKGCGYSDPLSAIFTT
B4: ISOP193FR9P1G11 (designed binder, not shown: small tags and cut ends)
chain: LPAPKNLVVSRVTEDSARLSWTAPDAAFDSFTIYYFENENGGEAIVLTVPGSERSYDLTGLKPGTEYLVTIYGVKGCDWSDPLSAIFTT
B5: ISOP193HR9P1A7 (designed binder, not shown: small tags and cut ends)
chain: LPAPKNLVVSRVTEDSARLSWTAPDAAFDSFDIYYYELRLGGEAIVLTVPGSERSYDLTGLKPGTEYLVTIYGVKVCNASTPLSAIFTT
B6: ISOP193FR9P1G7 (designed binder, not shown: small tags and cut ends)
chain: LPAPKNLVVSRVTEDSARLSWTAPDAAFDSFHIHYLEGEWGGEAIVLTVPGSERSYDLTGLKPGTEYLVTIYGVKGCDWSDPLSAIFTT
B7: ISOP193HR9P1E2 (designed binder, not shown: small tags and cut ends)
chain: LPAPKNLVVSRVTEDSARLSWTAPDAAFDSFEIYYLEWCSGGEAIVLTVPGSERSYDLTGLKPGTEYLVTIYGVKGCAASDPLSAIFTT
B8: ISOP193FR9P1G9 (designed binder, not shown: small tags and cut ends)
chain: LPAPKNLFVSRVTEDSARLSWTAPDAAFDSFQIYYREQWWDGEAIVLTVPGSERSYDLTGLKPGTEYLVTIYGVKGCDWSDPLSAIFTT
B9: ISOP193FR9P1G8 (designed binder, not shown: small tags and cut ends)
chain: LPAPKNLVVSRVTEDSARLSWTAPDAAFDSFEIYYFENELGGEAIVLTVPGSERSYDLTGLKPGTEYLVTIYGVKGCDWSDPLSAIFTT
B10: ISOP193FR9P1E10 (designed binder, not shown: small tags and cut ends)
chain: LPAPKNLVVSRVTEDSARLSWTTPDAAFDSFHIHYLEGEWGGEAIVLTVPGSERSYDLTGLKPGTEYLVTIYGVKGCDWSDPLSAIFTT
B11: ISOP193HR9P1B11 (designed binder, not shown: small tags and cut ends)
chain: LPAPKNLVVSRVTEDSARLSWTAPDAAFDSFEIYYFELRLGGEAIVLTVPGSERSYDLTGLKPGTEYLVTIYGVKGCGYSDPLSAIFTT
B12: ISOP193HR9P1E6 (designed binder, not shown: small tags and cut ends)
chain: LPAPKNLVVSRVTEDSARLSWTAPDAAFDSFEIYYAEFGYYGEAIVLTVPGSERSYDLTGLKPGTEYLVTIYGVKGCAASDPLSAIFTT
B13: ISOP193HR9P1D11 (designed binder, not shown: small tags and cut ends)
chain: LPAPKNLVVSRVTEDSARLSWTAPDAAFDSFDIYYYELRLGGEAIVLTVPGSERSYDLTGLKPGTEYLVTIYGVKVCEQSYPLSAIFTT
B14: ISOP193HR9P1B7 (designed binder, not shown: small tags and cut ends)
chain: LPAPKNLVVSRVTEDSARLSWTAPDAAFDSFEIYYFELRLGGEAIVLTVPGSERSYDLTGLKPGTEYLVSIYGVKGCGYSDPLSAIFTT
B15: ISOP193FR9P1D7 (designed binder, not shown: small tags and cut ends)
chain: LPAPKNLVVSRVTEDSARLSWTAPDAAFDSFEIYYAEYFKNGEAIVLTVPGSERSYDLTGLKPGTEYLVTIYGVKGCDWSDPLSAISTT
B16: ISOP193HR9P1C7 (designed binder, not shown: small tags and cut ends)
chain: LPAPKNLVVSRVTEDSARLSWTAPDAAFDSFEIYYLELDSDGEAIVLTVPGSERSYDLTGLKPGTEYIVTIYGVKVCTGSRPLSAIFTT
B17: ISOP193HR9P1D8 (designed binder, not shown: small tags and cut ends)
chain: LPAPKNLVVSRVTEDSARLSWTAPDAAFDSFDIYYLESGRDGEAIVLTVPGSERSYDLTGLKPGTEYLVSIYGVKGCGYSDPLSAIFTT
B18: ISOP193FR9P1F8 (designed binder, not shown: small tags and cut ends)
chain: LPAPKNLVVSRVTEDSARLSWTAPDAAFDSFDINYFENELGGEAIVLTVPGSERSYDLTGLKPGTEYLVTIYGVKGCDWSDPLSAIFTT
B19: ISOP193HR9P1A5 (designed binder, not shown: small tags and cut ends)
chain: LPAPKNLVVSRVTEDSARLSWTAPDAAFDSFDIYYYELRLGGEAIVLTVPGSERSYDLTGLKPGTEYLVTIYGVKGCGYSAPLSAIVTT
B20: ISOP193HR9P1A11 (designed binder, not shown: small tags and cut ends)
chain: LPAPKNLVVSRVTEDSARLSWTAPDAAFDSFEIYYLEGGRGEAIVLTVPGSERSYDLTGLKPGTEYLVTIYGVKCGWASNPLSAIFTT

Legend:
[1] = target: human serum albumin (human) (UniProt P02768); test: ELISA, negative control HSA
human serum albumin (human), sequence (P02768 25-609 limits assumed): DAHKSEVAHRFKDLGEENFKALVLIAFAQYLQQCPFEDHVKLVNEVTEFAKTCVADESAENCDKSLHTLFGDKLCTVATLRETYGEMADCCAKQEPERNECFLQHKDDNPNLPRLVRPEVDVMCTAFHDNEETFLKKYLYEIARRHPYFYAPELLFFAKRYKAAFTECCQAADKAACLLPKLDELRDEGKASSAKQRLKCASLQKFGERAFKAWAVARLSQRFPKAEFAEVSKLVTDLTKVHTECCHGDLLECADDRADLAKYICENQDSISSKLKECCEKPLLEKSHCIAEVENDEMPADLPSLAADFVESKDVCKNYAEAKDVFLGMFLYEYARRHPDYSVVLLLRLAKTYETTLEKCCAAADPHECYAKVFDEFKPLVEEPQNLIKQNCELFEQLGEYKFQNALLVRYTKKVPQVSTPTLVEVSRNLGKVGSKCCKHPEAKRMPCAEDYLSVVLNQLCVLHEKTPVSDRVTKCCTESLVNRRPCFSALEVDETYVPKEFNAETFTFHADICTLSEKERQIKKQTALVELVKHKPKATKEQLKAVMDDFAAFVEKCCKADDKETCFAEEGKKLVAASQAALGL

[2] = target: T1, recombinant biotinylated CD137 protein (Fc-fusion protein, R&D Systems 838-4B) (human, UniProt Q07011 24-186, biotinylated, sites not stated); test: ELISA, lysate on biotinylated CD137-Fc
T1 construct: Bought Fc fusion; also called CD137-Fc
Method in brief: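 Biotinylated CD137-Fc, an unrelated Fc-fusion protein or human serum albumin captured 1 h on streptavidin plates blocked in Starting Block T20; diluted bacterial lysate applied 1 h. Bound binders detected with HRP-conjugated anti-Centyrin antibody (PAB25) for 1 h, then POD substrate read-out.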

[3] = target: unrelated Fc-fused recombinant protein; test: ELISA, negative control Fc protein

| Binder | ELISA HSA (RLU) [1] [RLU] | ELISA CD137 (RLU) [2] [RLU] | ELISA Fc Control (RLU) [3] [RLU] |
| --- | --- | --- | --- |
| B1 | 10800 | 6.05e+06 | 51700 |
| B2 | 23000 | 1.12e+07 | 88300 |
| B3 | 5120 | 1.46e+07 | 25000 |
| B4 | 11000 | 1.08e+07 | 60600 |
| B5 | 12600 | 1.48e+07 | 48900 |
| B6 | 11000 | 5.5e+06 | 42300 |
| B7 | 3840 | 9.02e+06 | 13100 |
| B8 | 6800 | 1.28e+07 | 33600 |
| B9 | 5040 | 1.45e+07 | 25100 |
| B10 | 31000 | 2.05e+06 | 133000 |
| B11 | 4080 | 1.66e+07 | 15000 |
| B12 | 3040 | 1.13e+07 | 20100 |
| B13 | 6240 | 1.42e+07 | 48700 |
| B14 | 2240 | 1.64e+07 | 13000 |
| B15 | 2640 | 2.2e+06 | 15000 |
| B16 | 10000 | 3.44e+06 | 71400 |
| B17 | 2640 | 6.27e+06 | 10900 |
| B18 | 5040 | 8.57e+06 | 25700 |
| B19 | 2080 | 1.49e+07 | 6080 |
| B20 | 4240 | 1.66e+07 | 28300 |
